Test results reported in paper PMC10745693.
Where two headings read alike, the source gives them in different places.

How the values were obtained:
[1] = target: light-harvesting complex II (LHCII) trimer (spinach)
[2] = target: light-harvesting complex II (LHCII) trimer (spinach); remark: listed apart in the source

- pairwise LHCII-LHCII interaction energy J [1]: -5.4 kBT
- pairwise LHCII-LHCII interaction energy J [2]: -7.2 kBT
Substance: light-harvesting complex II (LHCII) trimer
